PMC4335062, “Data-Driven Prediction and Design of bZIP Coiled-Coil Interactions” (PLoS Computational Biology, 2015)
Like-named read-outs stand apart in the source and are kept apart here. Blank lines part the entries; values can stand above or below the molecule they belong to. Where no end group is shown, it is not given here.

Assays:
XBP1 = target: T1, XBP1 (Homo sapiens, UniProt P17861); experiment: Direct-binding FRET assay; conditions: C-terminal rhodamine design
T1 construct: made in house
T1 sequence (P17861 70-133 limits assumed): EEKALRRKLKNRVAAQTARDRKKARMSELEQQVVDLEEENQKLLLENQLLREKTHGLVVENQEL
Method: (§1) The direct binding assay was performed manually in 384-well plates and is similar to a previously described assay. Wells were filled with 20 μL of 1 mM TCEP-HCl. A 4 μM stock of acceptor protein was made fresh in 1 mM TCEP-HCl, and 20 μL was titrated in 2-fold dilutions over the wells. […] The direct-binding FRET data were fit as previously described. Briefly, the Kd of the designed peptide homodimer was experimentally determined and used with previously determined target homodimer Kd values to determine the heterodimer Kd. The homodimer Kd values used for the human bZIPs were from; experiments done by […] et al. used the same protein constructs for the human bZIP proteins, the same buffer conditions, and the same assay. The fitting used a system of ordinary differential equations to describe the concentrations of homo and heterodimers formed by the donor (D) and acceptor (A) as a function of the heterodimer Kd. MATLAB was used to simulate the binding experiment for different Kd values, and the value that gave the best agreement between simulation and experiment was assigned. A minimum 15% change in the donor fluorescence upon titrating the acceptor peptide from 0 to 1000 nM was required for a fit to be attempted. If this minimum was not met, the interaction was classified as “NS” for no signal change. […] For such curves, we removed the first five points and re-fit the data.

ATF3 = target: T2, ATF3 (Homo sapiens, UniProt P18847); experiment: Direct-binding FRET assay; conditions: C-terminal rhodamine design, mean or single, read-out: Kd
T2 construct: made in house
T2 sequence (P18847 86-149 limits assumed): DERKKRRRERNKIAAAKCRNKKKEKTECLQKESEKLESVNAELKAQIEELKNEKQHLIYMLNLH
Method: as §1

JUN = JUN (Homo sapiens, UniProt P05412); experiment: Direct-binding FRET assay; parameters: made in house; conditions: 37°C; C-terminal rhodamine design; mean or single; read-out: Kd
Method: as §1

XBP1 bZIP (Homo sapiens) = XBP1 bZIP (Homo sapiens) (UniProt P17861); conditions: cited from earlier work
[1] = target: BATF2 bZIP, C-terminally fluoresceinated (human) (UniProt Q8N1L9); experiment: FRET or BRET; direct-binding FRET at 4°C; 10 nM fluorescein-labelled bZIP (donor), rhodamine-labelled design (acceptor) titrated 0 to 1 μM; 150 mM KCl, 50 mM potassium phosphate pH 7.4, 0.1% Tween-20, 0.1% BSA
[2] = target: partner bZIP coiled coil (Protein2); conditions: cited from earlier work
Method: Supplement pcbi.1004046.s020.csv, table | column: Kd || Fig 4 Designed bZIP-binding peptides inhibit interactions of native bZIP dimers. […] The dissociation constants at the indicated temperatures are Kd ≤ 1 nM for FOS-JUN, Kd ≤1 nM for XBP1-CREBZF, and Kd = 60 nM for ATF4-FOS, according to [18]. Fluorescence intensities were measured at both 37°C and 23°C, a ...

[3] = target: T3, Activating Transcription Factor 4 (ATF4) bZIP construct, C-terminally fluoresceinated (human, UniProt P18848 278-351, fluorescein at the C-terminus); experiment: FRET or BRET; direct-binding FRET at 37°C; 10 nM fluorescein-labelled bZIP (donor), rhodamine-labelled design (acceptor) titrated 0 to 1 μM; 150 mM KCl, 50 mM potassium phosphate pH 7.4, 0.1% Tween-20, 0.1% BSA; conditions: both partners purified
T3 construct: source: previously described, donated by A.W. Reinke [18]
T3 sequence (looked up): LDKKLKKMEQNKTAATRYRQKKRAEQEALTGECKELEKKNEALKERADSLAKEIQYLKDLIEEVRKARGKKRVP

Chain of BATF2 bZIP, C-terminally fluoresceinated (human) (Q8N1L9 whole entry): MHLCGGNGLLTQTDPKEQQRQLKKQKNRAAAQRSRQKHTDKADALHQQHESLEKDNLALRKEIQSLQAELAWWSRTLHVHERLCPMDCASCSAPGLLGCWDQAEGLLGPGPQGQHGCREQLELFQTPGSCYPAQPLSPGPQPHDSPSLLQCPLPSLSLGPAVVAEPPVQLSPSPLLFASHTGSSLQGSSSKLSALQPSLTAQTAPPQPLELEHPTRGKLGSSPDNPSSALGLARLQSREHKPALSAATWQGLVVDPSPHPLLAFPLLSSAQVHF

Kd (XBP1; 37°C, mean or single, read-out: Kd): ≥ 5000 nM | binding to XBP1 (XBP1; 4, 23 or 37°C): did not bind detectably
Molecule: AETDQLENRVKDLKKKNESLKEEKRQASNKYKALLTNNRSLKVKA [XBP1-d2]

Kd (ATF3; 4°C): 117 nM | Kd (ATF3; 37°C): ≥ 5000 nM
Molecule: KDAASLENKKEELKVQNRILVDERKYLQMMNSELKDELAAHE [ATF3-d3]

Kd (ATF3; 37°C): ~1000 nM
Molecule: NDLARLENKAEELKVQNRILVDERKYLQREISELHDELAAHE [ATF3-d1]

Kd (ATF3; 37°C): 564 nM
Molecule: NLVAQLEKKNEALKAENAALEIERIQLQDKIEELKYELAAIE [ATF3-d2]

FRET efficiency [1]: 0.65
B1: ATF5-d1, rhodamine-labelled at the N-terminus (designed binder)
chain: GESKEYKKGSGSC(Rhodamine Red C2‑maleimide)GKRIAYLRQRIAELRNENHVLESRIQRMEKEKDALQQDRDHLEYEL

The remaining lines, values behind:

Molecule: QRALQLQKEKERLEKMNKKLAAEIESLLEERERLESVLNYHE [JUN-d2]
Kd (JUN): 1 nM

Molecule: XBP1 bZIP (from UniProt P17861)
Kd (XBP1 bZIP (Homo sapiens)): 8 nM

B2: ATF2: native human bZIP coiled coil (protein)
chain: MKFKLHVNSARQYKDLWNMSDDKPFLCTAPGCGQRFTNEDHLAVHKHKHEMTLKFGPARNDSVIVADQTPTPTRFLKNCEEVGLFNELASPFENEFKKASEDDIKKMPLDLSPLATPIIRSKIEEPSVVETTHQDSPLPHPESTTSDEKEVPLAQTAQPTSAIVRPASLQVPNVLLTSSDSSVIIQQAVPSPTSSTVITQAPSSNRPIVPVPGPFPLLLHLPNGQTMPVAIPASITSSNVHVPAAVPLVRPVTMVPSVPGIPGPSSPQPVQSEAKMRLKAALTQQHPPVTNGDTVKGHGSGLVRTQSEESRPQSLQQPATSTTETPASPAHTTPQTQSTSGRRRRAANEDPDEKRRKFLERNRAAASRCRQKRKVWVQSLEKKAEDLSSLNGQLQSEVTLLRNEVAQLKQLLLAHKDCPVTAMQKKSGYHTADKDDSSEDISVPSSPHTEAIQHSSVSTSNGVSSTSKAEAVATSVLTQMADQSTEPALSQIVMAPSSQSQPSGS
modifications: fluorescein at the C-terminus (FRET donor) or TAMRA (FRET acceptor), by assay
notes: native human bZIP coiled coil
Kd ([2]; Protein2 = ATF6 (HS), intra, 5000 assigned if Kd >5,000 nM or no binding): 5000 nM | Kd ([2]; Protein2 = CE20 (CE), inter, 5000 assigned if Kd >5,000 nM or no binding): 5000 nM

B3: ATF5-d1, rhodamine-labelled at the C-terminus (designed binder)
chain: GESKEYKKGSGSKRIAYLRQRIAELRNENHVLESRIQRMEKEKDALQQDRDHLEYELGC(Rhodamine Red C2‑maleimide)
notes: solubility linker after the His tag; added at the C-terminus for labelling; source: E. coli RP3098, purified (Ni-NTA under denaturing conditions, reverse-phase HPLC)
FRET efficiency [1]: 0.31 | Kd [3]: 4.9 ± 1 nM

B4: ATF5: native human bZIP coiled coil (protein)
chain: MSLLATLGLELDRALLPASGLGWLVDYGKLPPAPAPLAPYEVLGGALEGGLPVGGEPLAGDGFSDWMTERVDFTALLPLEPPLPPGTLPQPSPTPPDLEAMASLLKKELEQMEDFFLDAPPLPPPSPPPLPPPPLPPAPSLPLSLPSFDLPQPPVLDTLDLLAIYCRNEAGQEEVGMPPLPPPQQPPPPSPPQPSRLAPYPHPATTRGDRKQKKRDQNKSAALRYRQRKRAEGEALEGECQGLEARNRELKERAESVEREIQYVKDLLIEVYKARSQRTRSC
modifications: fluorescein at the C-terminus (FRET donor) or TAMRA (FRET acceptor), by assay
notes: native human bZIP coiled coil
Kd ([2]; Protein2 = CEBPE (HS), intra): 27.8 nM | Kd ([2]; Protein2 = CI20 (CI), inter): 551 nM
